Data taken from the DeepSol protein solubility set.

Assay: soluble on expression in E. coli; label from the status in PepcDB or PDB records

| Sequence | soluble on expression in E. coli |
| --- | --- |
| MEYYFTAQKLAVGYDNRPLIENIDFSLKRGEILTLIGPNGAGKSTILKSIARQLSLVSGTIYLDKSDVVTMNGNEFAKKMAVVLTDKLKTELMTCYDVVATGRYPYTGRFGVLSDEDKKAVDEAMELVNVSQIKDKDFTKISDGQRQRVMLSRAICQQPEIIVLDEPTSYLDIKYKLEFLSILQRLKRQKNLTVIMSLHELDMAKRVSDHILCIDGRYVDRYGTPEEVFTDQYVSGLFGITAGSLEHHHHHH | not soluble |
| MFALVLAAGRSRRFDGDKRKALLPCGRTLLTACLETAGKVFTETGVVLREDDEVQTLGIPSKVTIIRCKHADLGMGHSLAAGIAAALNSSADAVAILLADMPWIEPQTLRDLARLADPQRIALPMHEGQRGHPVIIGRRFWPRLLALEGDQGAKALITNNPAFCDVMNCDDPGVLRDADTRSALAIACRQHLTAGRDLEHHHHHH | not soluble |
| MFARNFFKGGTKVPHFKNTAECETVKMGVPEKVVIPMLQHVGAPCEPCVKKGDTVRVGQVIGNSDKYISSPIHSSVSGTVNDVAPMLFAGGIYVTAVEIKTDGKQEIYEGIKPPSFSNSKEFISAIRESGLVGLGGAGFPAHVKLSPPPDKKIDTLIINAAECEPYITSDYREIIENSWNVVSGINIIMEILGIENVLIGIEDNKPEAIKEMTRVAATDDRINVIKLKSRYPQGAEKMLIYATTGRKVPPGKLPADVGVIVMNVNSVSFISEYIKTGMPLIKKRVTVDGPSVKRPGNVEVLIGTPISEVFSFCGGFGIVPKKILMGGPMMGIAQYTLDTPVLKHTNALLAFDETTAVLPKEQACIRCGRCVRACPMNLLPLYLNNNSIRGNIEELNRYHVMDCIECGSCAYVCPAKINLVQSIRLGKAQVRQAAAKGGN | not soluble |
| MFAVDPQMNQTVNSPKGQLLLRTLAMPADTNANGDIFGGWIMSQLDLAGGILAKEISCGRIVTVSVSSITFKKPVKVGDVVCCYGECTKIGRTSMSINLEVWVKPVKEEGVGERFQVCEATFNYVAIDANGRPRAISLSNGSQKSSLEHHHHHH | not soluble |
| MFDIGFGELLLVMVLGLIVLGPERLPVAVRTVASWIRTLRSLASTVQNELSQELKLQEFQESLKKVEKASLQNLSPELKASMDELKDAAEAMKRGYTETPSPQKSDDPKKSGDHSATVEPQSNIPLNDPEAAYDGVIEAETAVRPADSQQKPENAAVAENHNDGRHATSDEAVGNNNVKPEQSQPSAASARQPSDSRLEHHHHHH | not soluble |
| MFDKLKENEELWDLFTRKEEYSVTFRDAYERFPYYLSSHRNIFEPRVSKFLVENGLKPQYPDGKKFAVCLTHDIDAIYPDKLYPIVGPVKALSRGKLAEAVKAPFSRVNRKWNPCWNFREILALEAKYNAKSSFYFLALTSEETDFNYNIKDLETELGFISDSGWEVGLHGGHESYNSLEDIKEKKRRLEEVLGKKVVGYRNHYLRFRVPDTWELLSKAGFKYDTTFGYSDCAGFRNGMCHPYRPFNLNEGRQIDILEIPLVIMDRSLLKDYMRLNVKKAWECTKHLINTVEKYNGVITILWHNNMCIDGENLRYYEKVLEYCAEKNAWITSGEEIYNWWTSKIEPGNLEHHHHHH | not soluble |
| MFDRYESGERAVLVHINFTQEGEWEDLAEFEMLVSSAGVETLQVVTGSRQSPHPKYYVGEGKAQEIATTVHLTGAEIVIFNHSLSPAQERNLEALCKCRVLDRTGLILDIFAQRARTHEGKLQVELAQLRHISTRLIRGWTHLERQKGGIGLRGPGETQLETDRRLLRERIKAILRRLEKVAKQREQGRRARNRAEIPTISLVGYTNAGKSTLFNRITEAGVYAADQLFATLDPTLRKMELADVGPAILADTVGFIRHLPHDLVAAFKATLQETQEADILLHVVDASDERFRENIQAVHEVLEEIDAHEVPTLVVMNKIDNLESQTPRIERDEEGVPRAVWVSAMEGLGIELLFDALTERLASQMVEHQLRIPPQYQGRFRSTFFQMKCIQREEYDQDGNLLIDIRMQQVDWSRLEKREGAVLTDFIVTLEHHHHHH | not soluble |
| MFENESLSFEEQTIIQAAERYVQQELANEASGHDWWHIYRVTQLAKTIAEKEQANLFLCILTALLHDIGDEKFNESEEAGLLKVQQWLEANNVSTEQTNHILSIIANMSFKGGNTGKTVTTLEGKVVQDADRLDAIGAIGIARVMAYSGNKGRLIHDPHKQPREQLTQEEYRNGEDTAIMHFYEKLLKLKEQMNTNYGRLLAEKRHQFMELYLEEFYQEWDGHRLEHHHHHH | soluble |
| MFFLQMSGFPGSGKSTVSKYIAKLTGAVIIDHDVLKSALLKSLKVKGIESTIVGGLAYDAEWVLIDSYLEQGHSVILDSPCLYEGMVEKGIELSNKHGVKYKYIECYLNDMEEINRRLQTRKRMISQIEKVESEVGFKKWLNGSKRPSNNEYLIVDSSKPIEQYVEKMMDYMTK | not soluble |
| MFFTDESGIHHDPSKVRRLGLYNVPVDYPSRKLNVLASIPLFDGVPCFMFTYSNVNSEIFAEFLRLFRNSGPIVLILDNAKFHKNAYVFSVASQLGITLLFLPPYSPDLNPIELVWKDLKRWVNTYYNLEYTLDSMEEEFYYLFLRECSQTVMKFKKRL | soluble |
| MFGIFDKGQKIKGTVVLMPKNVLDFNAITSIGKGGVIDTATGILGQGVSLVGGVIDTATSFLGRNISMQLISATQTDGSGNGKVGKEVYLEKHLPTLPTLGARQDAFSIFFEWDASFGIPGAFYIKNFMTDEFFLVSVKLEDIPNHGTIEFVCNSWVYNFRSYKKNRIFFVNDTYLPSATPAPLLKYRKEEFEVLRGDGTGKRKDFDRIYDYDVYNDLGNPDGGDPRPILGGCSIYPYPLRVRTGRERTRTDPNSEKPGEVYVPRDENFGHLKSSDFLTYGIKSLSHDVIPLFKSAIFQLRVTSSEFESFEDVRSLYEGGIKLPTDILSQISPLPALKEIFRTDGENVLQFPPPHVAKVSKSGVMTDEEFAREVIAGVNPNVIRRLQEFPPKSTLDPTLYGDQTSTITKEQLEINMGGVTVEEALSTQRLFILDYQDAFIPYLTRINSLPTAKAYATRTILFLKDDGTLKPLAIELSKPHPDGDNLGPESIVVLPATEGVDSTIWLLAKAHVIVNDSGYHQLVSHWLNTHAVMEPFAIATNRHLSVLHPIYKLLYPHYRDTININGLARQSLINADGIIEKSFLPGKYSIEMSSSVYKNWVFTHQALPADLVKRGLAIEDPSAPHGLRLVIEDYPYAVDGLEIWDAIKTWVHEYVSLYYPTDAAVQQDTELQAWWKEAVEKGHGDLKEKPWWPKKQTTEDLIQSCSIIVWTASALHAAVNFGQYPYGGLILNRPTLARRFIPAEGTPEYDEMVKNPQKAYLRTITPKFETLIDLSVIEILSRHASDEIYLGERETPNWTTDKKALEAFKRFGSKLTGIEGKINARNSDPSLRNRTGPVQLPYTLLHRSSEEGLTFKGIPNSISI | soluble |
| MFGKQLFEEVGSKISETIANSPAKDVEKNIKAMLGGAFNRMDLVTREEFDIQQQVLIKTRTKLAALEARLEKLEAAQNPERAALEAAEAAAE | not soluble |
| MFHVKLTLTTMLDTMNSSAHRPVVVADVDTGIDDALAITYLGYLHRRGLIELRITTSAGNCTAEQAAANSAEIMNSLTLSDVPITPGAPKPRALPLTTTPETHGPTGLGYHTTRATIPQLSNAAAAVDLWKGADYLLVAGPATNVAWAAENAPEVLNAIPHVTFMTGAFHYPGNTTPTAEWNAWVDPHALKEALAHYRGHAVRPTICPLNVTESVLLTPQRLKQWCQRSQEPVLPILSDALRFYFEFHESVGVGYMAQIHDLAAAMVLLNRVPHTTRPGFVDVEADAELTRGTTVVDWDSNYGDHPANAQILTALQSEDVFAEFERVVLEY | not soluble |
| MFIDTSELCDLYAEQVDVVEPIFSSFGGVSNFYGKVTTVKCFESNGLIAEVLEENGEGRVLVIDGGGAVRRGLIDAELAQLAVDNGWEGIIVYGAVRQIQQLENLDIGIHALAPIPVSADESSAGESDIPVNFGGVTFFPEDYIYADLTGIILSQEPLDLEDLEHHHHHH | not soluble |
| MFISVLDLFKIGIGPSSSHTMGPMTAANVFRDHVDQLVSQTPDDLNYRVYCVLKGSLAFTGRGHATDRAVALGLHGHSPVSLAGEDVNALTAKLWATDTLQLTSGREIGFNPEDDIVFDKSDPLPQHPNGMIFYLLDEEGKKILSETFFSIGGGFICTLAEINQ | not soluble |
